Experimental findings from patent US20220409661A1 (published 2022) are described below.

The test addresses T1, WT-1 (Wilms tumor protein 1) peptide on HLA-A*02:01 (human).
T1 peptide: RMFPNAPYL
Briefly: multimer staining.

B1: TCR #10 (TCR, V domains shown)
Valpha: AQTVTQSQPEMSVQEAETVTLSCTYDTSESNYYLFWYKQPPSRQMILVIRQEAYKQQNATENRFSVNFQKAAKSFSLKISDSQLGDTAMYFCAFNPWENYGQNFVFGPGTRLSVLP
Vbeta: GAVVSQHPSWVICKSGTSVKIECRSLDFQATTMFWYRQFPKQSLMLMATSNEGSKATYEQGVEKDKFLINHASLTLSTLTVTSAHPEDSSFYICSARPHSLTDTQYFGPGTRLTVL
In the case of B1, the binding result is “recognises”.

B2: TCR #6 (TCR, V domains shown)
Valpha: EDQVTQSPEALRLQEGESSSLNCSYTVSGLRGLFWYRQDPGKGPEFLFTLYSAGEEKEKERLKATLTKKESFLHITAPKPEDSATYLCAVQTMDGNQFYFGTGTSLTVIP
Vbeta: NAGVTQTPKFQVLKTGQSMTLQCAQDMNHEYMSWYRQDPGMGLRLIHYSVGAGITDQGEVPNGYNVSRSTTEDFPLRLLSAAPSQTSVYFCASSYSLWDLQETQYFGPGTRLLVL
Regarding B2, the binding result was “recognises”.
